Test results from PMC5374420, “In Search of Small Molecule Inhibitors Targeting the Flexible CK2 Subunit Interface” (Pharmaceuticals, 2017).

Target: T1, CK2α of MCF-10A cells (human (endogenous in MCF-10A), UniProt P68400 1-391)
T1 construct: protein kinase CK2 catalytic subunit alpha, endogenous; also called free CK2α subunit; source: endogenous, MCF-10A cells and cell extracts (WT or CK2β-depleted)
Assay: thermal shift assay in cell lysates; CK2β-depleted MCF-10A cell lysates (50 mM Tris-HCl pH 7.5, 150 mM NaCl, 2% glycerol) with 50 µM TAT or TAT-Pc 13, or PBS or CK2β, 30 min at room temperature; aliquots heated 3 min; CK2 activity of the supernatants
Conditions: one partner purified

T1 sequence (P68400 whole entry): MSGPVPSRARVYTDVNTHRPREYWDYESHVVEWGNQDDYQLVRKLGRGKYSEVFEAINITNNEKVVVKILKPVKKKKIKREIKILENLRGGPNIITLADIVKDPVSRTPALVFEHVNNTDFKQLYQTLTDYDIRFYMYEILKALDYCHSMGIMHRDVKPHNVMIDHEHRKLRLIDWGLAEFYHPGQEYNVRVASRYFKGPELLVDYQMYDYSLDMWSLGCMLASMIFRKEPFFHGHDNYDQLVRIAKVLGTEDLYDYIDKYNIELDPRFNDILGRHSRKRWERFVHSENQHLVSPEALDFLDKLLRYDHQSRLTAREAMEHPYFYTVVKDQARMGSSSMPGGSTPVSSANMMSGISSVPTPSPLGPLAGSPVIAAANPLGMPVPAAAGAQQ

B1: recombinant CK2β (natural protein)
chain: not shown
notes: protein kinase CK2 regulatory subunit beta; also called protein kinase CK2 regulatory β subunit
shift of the melting curve: 3 °C
